Experimental data: publication PMC7497679, “Structure-based design, synthesis, and evaluation of the biological activity of novel phosphoroorganic small molecule IAP antagonists” (Investigational New Drugs, 2020)

Biological target: X-linked inhibitor of apoptosis protein (XIAP) BIR3 domain (human)
Assay: fluorescence polarisation; competition: XIAP BIR3 (50 nM) added to the competitor (50 µM to 0.640 nM or to 0.0537 nM), 15 min at r.t., then probe 4 (2 nM), read 30 min later; phosphate buffer pH 7.5 with γ-globulin 100 µg/mL and NaN3 0.02%, final DMSO 1.4%

EC50: 340 nM
Binder: H-AVPW-OH [tetrapeptide H2N-Ala-Val-Pro-Trp-OH (3)]
